# B1: Fibulin-5 (Homo sapiens), Q9UBX5 (parent)
# chain: MPGIKRILTVTILALCLPSPGNAQAQCTNGFDLDRQSGQCLDIDECRTIPEACRGDMMCVNQNGGYLCIPRTNPVYRGPYSNPYSTPYSGPYPAAAPPLSAPNYPTISRPLICRFGYQMDESNQCVDVDECATDSHQCNPTQICINTEGGYTCSCTDGYWLLEGQCLDIDECRYGYCQQLCANVPGSYSCTCNPGFTLNEDGRSCQDVNECATENPCVQTCVNTYGSFICRCDPGYELEEDGVHCSDMDECSFSEFLCQHECVNQPGTYFCSCPPGYILLDDNRSCQDINECEHRNHTCNLQQTCYNLQGGFKCIDPIRCEEPYLRISDNRCMCPAENPGCRDQPFTILYRDMDVVSGRSVPADIFQMQATTRYPGAYYIFQIKSGNEGREFYMRQTGPISATLVMTRPIKGPREIQLDLEMITVNTVINFRGSSVIRLRIYVSQYPF
# Variants of: B1
# Details: with eln_bovin ELN
row,effect of a mutation on the interaction,Variant
1,decreasing interaction strength,S227P
2,decreasing interaction strength,C217R

# From IntAct's records for PubMed 17035250
